Data from US20110268745A1 (Novo Nordisk, published 2011).

Target: T1, human tissue factor pathway inhibitor (TFPI) (human, UniProt P10646 29-304, biotinylated in the ELISA (site not stated))
T1 construct: Full length TFPI and a short version, TFPIB161B (first two Kunitz domains), were both used for immunisation and ELISA; also called TFPI1; human TFPI1
T1 sequence: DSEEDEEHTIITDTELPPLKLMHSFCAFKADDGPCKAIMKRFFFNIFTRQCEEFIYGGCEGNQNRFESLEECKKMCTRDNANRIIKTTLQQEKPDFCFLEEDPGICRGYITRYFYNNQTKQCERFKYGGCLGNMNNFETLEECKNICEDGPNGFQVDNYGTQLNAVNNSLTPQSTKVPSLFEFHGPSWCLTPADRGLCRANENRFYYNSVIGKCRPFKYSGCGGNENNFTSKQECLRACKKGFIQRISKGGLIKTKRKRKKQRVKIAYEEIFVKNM
Assay: hybridoma screening; ELISA with antibody captured on anti-mouse IgG and soluble biotinylated human TFPI or TFPIB161B, as described in the methods
Protocol: Immunoplates were coated with anti-mouse IgG. Culture supernatants from the hybridoma cells were added to the plates and, after washing, soluble biotinylated human TFPI or TFPIB161B was added to test for specific binding.

- binding result: binds
B1: TFPI-3F18A4B1 (antibody, IgG1, V domains shown)
VH: EVKLVESGGGLVKPGGSLRLSCAASGFTFSNYALSWVRQTPDKRLEWVASISSGGATYYPDSVEGRFTISRDNVRNILYLQMSSLQSEDTAMYYCTRGAYGSDYFDYWGQGTTLTVSS
VL: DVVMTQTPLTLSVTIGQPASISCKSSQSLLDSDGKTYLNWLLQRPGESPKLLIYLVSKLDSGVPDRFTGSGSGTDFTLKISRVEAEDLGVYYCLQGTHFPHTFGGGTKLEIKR
notes: also called TFPI-3F18A2; anti-TFPI antibody 3F18
